Biological target: the molecule itself
Assay: SDS-PAGE and Western blot

B1: His-tagged aquaporin-9 (natural protein, UniProt P56627 1-295, looked up)
chain: MPSEKDGAKKSLMQRLALKSRIAKETLSEFLGTFIMIVLGCSSIAQAVLSRERFGGIITINIGFASAVVMALYVTFGISGGHINPAVSFAMCAFGRMEWFKFPFYVGAQFLGAFVGAATVFGIYYDGLMAFAGGKLLVVGENATAFIFATYPAPFISTPGAFVDQVVSTMFLLLIVFAMFDSRNLGVPRGLEPVVIGLLIIVLSCSLGLNSGCAMNPARDLSPRLFTALAGWGFEVFTVGNNFWWIPVVGPMIGAFLGGLIYILFIQMHHSKLDPDMKAEPSENNLEKHELSVIM
modifications: unglycosylated (~32 kDa) and glycosylated (~35 kDa) forms
B1 was tested, and the “stoichiometry N” value was 2.

— publication PMC2564605 (Journal of molecular biology, 2008)
